Assay results as given in patent US20040005672A1, “Heterologous production of polyketides” (priority 2002, published 2004).
“Also recorded” adds a separate entry of the source. Blank lines part the entries; values can stand above or below the molecule they belong to.

Key:
[1] = Stability of acyl-CoAs in TCA and mutase assay buffer (HPLC); type: physicochemical; settings: five minutes under the mutase assay conditions, 30° C
Experimental: To test whether acyl-CoAs degrade in TCA, the following tests were conducted. The CoA mix consisted of 1.6 mM each of malonyl-, methylmalonyl-, succinyl-, acetyl-, and propionyl-CoA, plus 0.5 mM CoA. An aliquot (10 μL) of this mix was added to 100 μL 10% TCA, 50 μL were immediately injected to the HPLC for CoA analysis, and the remainder was promptly frozen on dry ice. The frozen portion was then thawed and loaded immediately to the HPLC. Again, 10 μL of the CoA mix were added to 100 μL 10% TCA, 50 μL were left on ice for 15 minutes and then injected to the HPLC, the remainder was left at 4° C. overnight and injected to the HPLC the next morning. The area under each CoA peak was noted. This same procedure was followed but using a mixture of TCA and buffer A from the mutase assay.
The CoA analysis described here is carried out on cells which are lysed in 10% TCA. […] Thus, the CoAs are stable in TCA and in the mutase assay buffer after the cells are lysed or after the assays are completed, and prior to HPLC analysis.
Although the CoAs are stable in TCA and buffer at 4° C., they degraded at 30° C., the temperature at which the mutase assay was performed. In five minutes under the assay conditions, about 4% of the methylmalonyl-CoA hydrolyzed to CoA. […] Thus, the mutase assay is suboptimal for extremely quantitative results.

DEBS or DEBS1+TE = settings: cited from earlier work
[2] = Spontaneous chemical epimerization between (R)- and (S)-mm-CoA; type: physicochemical; settings: in 15 minutes
[3] = Methylmalonyl-CoA mutase assay in crude cell extracts (HPLC, conversion of methylmalonyl-CoA to succinyl-CoA); type: biochemical; settings: cells grown without hydroxocobalamin; extracts not supplemented with B12
Experimental: The mutase assay was performed as follows. All operations were performed in the dark or under a red safelight. The pellet from 25 mL of culture was thawed, washed in buffer C (50 mM potassium phosphate pH 7.4, 5 mM EDTA, 10% glycerol), and resuspended in 0.5 mL of buffer C containing protease inhibitors (1 tablet per 10 mL of buffer). Following sonication on ice, the extract was clarified by centrifugation at 4° C. for 10 minutes at maximum speed in an Eppendorf microfuge; the supernatent was assayed. Enzyme assays contained, in a final volume of 100 μL, 0.2 mM (2R,2S)-methylmalonyl-CoA, mutase extract, and buffer C containing protease inhibitors. Reactions for assays with vitamin B12 were as above but contained 0.01 mM vitamin B12, in which case the mutase extract was incubated with the vitamin B12 in a total volume of 75 μL for 5 minutes at 30° C. prior to initiation of reaction with methylmalonyl-CoA. After the desired length of incubation at 30° C., the reaction was stopped by the addition of 50 μL of 10% trichloroacetic acid (TCA) and placed on ice for approximately 10 minutes. […] An aliquot (100 μL) of the supernatant was injected onto the HPLC to quantify conversion of methylmalonyl-CoA to succinyl-CoA. […]
Methylmalonyl-CoA mutase assay. […] After centrifugation, 100 μl of the supernatant was analyzed by HPLC to quantify conversion of methylmalonyl-CoA to succinyl-CoA.

[4] = substrate: C[C@H](C(=O)O)C(=O)SCCNC(=O)CCNC(=O)[C@H](O)C(C)(C)COP(=O)(O)OP(=O)(O)OC[C@H]1O[C@@H](n2cnc3c(N)ncnc32)[C@H](O)[C@@H]1OP(=O)(O)O; assay: Methylmalonyl-CoA epimerase steady state kinetics (transcarboxylase/malate dehydrogenase coupled assay, A340); type: biochemical, Propionibacterium freudenreichii subsp. shermanii; settings: other: 30° C, pH 6.9, (2RS)-methylmalonyl-CoA 27 μM to 160 μM, (2R) concentration assumed one-half of (2RS), epimerase activated with CoCl2
Experimental: (§1) Methylmalonyl-CoA epimerase assay. Enzyme activity was assayed at 30° C. using a modification of a reported method (27). The epimerase (0.54 mg/ml) was first activated with 100 μM CoCl2 at 4° C. for 1 h. Reaction mixtures (1.5 mL) contained 0.2 M potassium phosphate buffer pH 6.9, 0.1 M NH4SO4, 5 mM Na pyruvate, 0.08 mM (2RS)-methylmalonyl-CoA, 0.05 units transcarboxylase, 0.16 mM NADH, and 2.5 units of malate dehydrogenase. The reaction was initiated with (2RS)-methylmalonyl-CoA, and the decrease in A340 concomitant with consumption of the S-isomer was allowed to stabilize. Limiting epimerase was added to catalyze conversion of the remaining R- to S-isomer, and the initial rate and total decrease in A340 were monitored. For kinetic studies, -1.2 nM epimerase was incubated with varying amounts of (2RS)-methylmalonyl-CoA (27 μM to 160 μM). The (2R)-methylmalonyl-CoA concentrations were assumed to be one-half of the concentration of (2RS)-methylmalonyl-CoA.
Heterologous expression and purification of the epimerases. E. coli BL21(DE3) harboring either pKOS143-28-8 (P. shermanii epimerase) or pKOS117-174-A37 (S. coelicolor epimerase) was grown in 750 ml LB (100 μg/ml carbenicillin) at 37° C. until late log phase, then induced with IPTG to 1 mM final concentration and grown for an additional 3 h at 30° C. The cells were collected by centrifugation, and the pellets were stored at −80° C. […]

[5] = substrate: C[C@H](C(=O)O)C(=O)SCCNC(=O)CCNC(=O)[C@H](O)C(C)(C)COP(=O)(O)OP(=O)(O)OC[C@H]1O[C@@H](n2cnc3c(N)ncnc32)[C@H](O)[C@@H]1OP(=O)(O)O; assay: as above; type: biochemical, Streptomyces coelicolor; settings: other: 30° C, pH 6.9, (2RS)-methylmalonyl-CoA 27 μM to 160 μM, (2R) concentration assumed one-half of (2RS), epimerase activated with CoCl2
Experimental: as §1
S. coelicolor methylmalonyl-CoA epimerase gene. The P. shermanii methylmalonyl-CoA epimerase DNA sequence was used to search the S. coelicolor genomic database (www.sanger.ac.uk/Projects/S coelicolor) using the BLAST programs at the National Center for Biotechnology Information, NIH website (37), and S. coelicolor gene 8F4.02c was identified as a putative methylmalonyl-CoA epimerase. […]

hydrolyzed to CoA [1]: comparable rate
Molecule: CC(C)(COP(=O)(O)OP(=O)(O)OC[C@H]1O[C@@H](n2cnc3c(N)ncnc32)[C@H](O)[C@@H]1OP(=O)(O)O)[C@@H](O)C(=O)NCCC(=O)NCCSC(=O)CCC(=O)O [succinyl-CoA]

Molecule: C[C@@H](C(=O)O)C(=O)SCCNC(=O)CCNC(=O)[C@H](O)C(C)(C)COP(=O)(O)OP(=O)(O)OC[C@H]1O[C@@H](n2cnc3c(N)ncnc32)[C@H](O)[C@@H]1OP(=O)(O)O [(2S)-methylmalonyl-CoA]
Km (DEBS or DEBS1+TE): ~25 µM

hydrolyzed to CoA [1]: about 4%
spontaneous chemical epimerization [2]: approximately 3%
Molecule: CC(C(=O)O)C(=O)SCCNC(=O)CCNC(=O)[C@H](O)C(C)(C)COP(=O)(O)OP(=O)(O)OC[C@H]1O[C@@H](n2cnc3c(N)ncnc32)[C@H](O)[C@@H]1OP(=O)(O)O (stereo partly drawn) [methylmalonyl-CoA]

B1: mutase: methylmalonyl-CoA mutase (EC 5.4.99.2) from P. shermanii, expressed in E. coli (protein, UniProt P11652 2-638; P11653 2-728, looked up)
Methylmalonyl-CoA mutase … 1: SSTDQGTNPADTDDLTPTTLSLAGDFPKATEEQWEREVEKVLNRGRPPEKQLTFAECLKRLTVHTVDGIDIVPMYRPKDAPKKLGYPGVAPFTRGTTVRNGDMDAWDVRALHEDPDEKFTRKAILEGLERGVTSLLLRVDPDAIAPEHLDEVLSDVLLEMTKVEVFSRYDQGAAAEALVSVYERSDKPAKDLALNLGLDPIAFAALQGTEPDLTVLGDWVRRLAKFSPDSRAVTIDANIYHNAGAGDVAELAWALATGAEYVRALVEQGFTATEAFDTINFRVTATHDQFLTIARLRALREAWARIGEVFGVDEDKRGARQNAITSWRDVTREDPYVNILRGSIATFSASVGGAESITTLPFTQALGLPEDDFPLRIARNTGIVLAEEVNIGRVNDPAGGSYYVESLTRSLADAAWKEFQEVEKLGGMSKAVMTEHVTKVLDACNAERAKRLANRKQPITAVSEFPMIGARSIETKPFPAAPARKGLAWHRDSEVFEQLMDRSTSVSERPKVFLACLGTRRDFGGREGFSSPVWHIAGIDTPQVEGGTTAEIVEAFKKSGAQVADLCSSAKVYAQQGLEVAKALKAAGAKALYLSGAFKEFGDDAAEAEKLIDGRLFMGMDVVDTLSSTLDILGVAK
Methylmalonyl-CoA mutase … 2: STLPRFDSVDLGNAPVPADAARRFEELAAKAGTGEAWETAEQIPVGTLFNEDVYKDMDWLDTYAGIPPFVHGPYATMYAFRPWTIRQYAGFSTAKESNAFYRRNLAAGQKGLSVAFDLPTHRGYDSDNPRVAGDVGMAGVAIDSIYDMRELFAGIPLDQMSVSMTMNGAVLPILALYVVTAEEQGVKPEQLAGTIQNDILKEFMVRNTYIYPPQPSMRIISEIFAYTSANMPKWNSISISGYHMQEAGATADIEMAYTLADGVDYIRAGESVGLNVDQFAPRLSFFWGIGMNFFMEVAKLRAARMLWAKLVHQFGPKNPKSMSLRTHSQTSGWSLTAQDVYNNVVRTCIEAMAATQGHTQSLHTNSLDEAIALPTDFSARIARNTQLFLQQESGTTRVIDPWSGSAYVEELTWDLARKAWGHIQEVEKVGGMAKAIEKGIPKMRIEEAAARTQARIDSGRQPLIGVNKYRLEHEPPLDVLKVDNSTVLAEQKAKLVKLRAERDPEKVKAALDKITWAAGNPDDKDPDRNLLKLCIDAGRAMATVGEMSDALEKVFGRYTAQIRTISGVYSKEVKNTPEVEEARELVEEFEQAEGRRPRILLAKMGQDGHDRGQKVIATAYADLGFDVDVGPLFQTPEETARQAVEADVHVVGVSSLAGGHLTLVPALRKELDKLGRPDILITVGGVIPEQDFDELRKDGAVEIYTPGTVIPESAISLVKKLRASLDA
mutase activity [3]: no mutase activity was observed; also recorded: undetectable

B2: Propionibacterium shermanii methylmalonyl-CoA epimerase (EC 5.1.99.1), wild type, recombinant, GenBank AY046899 (Propionibacterium freudenreichii subsp. … (protein)
chain: MSNEDLFICIDHVAYACPDADEASKYYQETFGWHELHREENPEQGVVEIMMAPAAKLTEHMTQVQVMAPLNDESTVAKWLAKHNGRAGLHHMAWRVDDIDAVSATLRERGVQLLYDEPKLGTGGNRINFMHPKSGKGVLIELTQYPKN
Km [4]: 38 µM
kcat [4]: 150 s⁻¹

B3: Streptomyces coelicolor methylmalonyl-CoA epimerase, wild type, recombinant (gene 8F4.02c) (Streptomyces coelicolor A3(2)) (protein)
chain: MLTRIDHIGIACHDLDATVEFYRATYGFEVFHTEVNEEQGVREAMLKINDTSDGGASYLQLLEPTREDSAVGKWLAKNGEGVHHIAFGTADVDADAADIRDKGVRVLYDEPRRGSMGSRITFLHPKDCHGVLTELVTSAAVESPEH
notes: (2RS)-methylmalonyl-CoA substrate
Km [5]: 57 µM
kcat [5]: 75 s⁻¹
